Experimental data from patent publication US6150139A, “Bacterocide compositions and their preparation from micrococcus varians” (priority 1995, dated 2000).

Tests used:
[1] = system: strain of Lactococcus lactis which produces lacticin 481; assay: inhibition spectrum test on the lacticin 481 producer; format: cell-based
Text: When the strain of Lactococcus lactis which produces lacticin 481 is inoculated in the presence of a […] extract, as previously described in the inhibition spectrum test, the growth of the said strain is seen to be inhibited. The strain of Lactococcus lactis which produces lacticin 481 is immune to its own bacteriocin, lacticin 481, but is not immune to the […] produced by either of the two Micrococcus varians strains according to the present invention.

[2] = system: Lactobacillus helveticus (N 2); assay: inactivation by enzymes, agar well test; format: physicochemical; conditions: for Inhibition halo diameter after enzyme treatment: 60 min
[3] = system: Lactobacillus bulgaricus (YL 5); assay: inactivation by enzymes, agar well test; format: physicochemical; conditions: 60 min, halo after treatment
[4] = system: Lactobacillus helveticus (N 2); assay: resistance to pH, agar well test; format: physicochemical; conditions: readjusted to pH 6-7
[5] = system: Lactobacillus helveticus (N 2); assay: resistance to heat, agar well test; format: physicochemical; conditions: for Inhibition halos (mm): 100 °C, pH 7
[6] = system: Lactobacillus helveticus (N 2); assay: resistance to heat and to pH, agar well test; format: physicochemical; conditions: for Inhibition halo (mm): 115 °C
Gram-negative bacteria = assay: agar well test, inhibition spectrum, Gram-negative bacteria; format: cell-based; conditions: results of Table V
Text: The inhibition spectrum of the supernatant is thus determined.

[7] = Catalase (SIGMA C-10) 5 mg/ml, incubation 30 °C
[8] = Ficin (SIGMA F-3266) 5 mg/ml, incubation 37 °C
[9] = Pronase E (SIGMA P-8038) 5 mg/ml, incubation 37 °C
[10] = Proteinase K (MERCK 1000 144) 5 mg/ml, incubation 37 °C

lacticin 481
growth of the lacticin 481-producing strain in presence of bacteriocin [1]: immune

variacin: bacteriocin from Micrococcus varians strains CNCM I-1586 and CNCM I-1587, amino acid sequence SEQ ID NO:1 (GSGVIPTISHECHMNSFQFVFTCCS)
Inhibition halo diameter after enzyme treatment [2, 7]: 27 mm | Inhibition halo diameter after enzyme treatment [2, 8]: 0 mm | Inhibition halo diameter after enzyme treatment [2, 9]: 0 mm | Inhibition halo diameter after enzyme treatment [2, 10]: 0 mm | effect of proteolytic enzymes on bactericidal activity ([2]; all proteolytic enzymes of Tables I and II, indicator strains N 2 and YL 5): suppress the bactericidal activity | influence of catalase on bactericidal activity ([2]; two indicator strains N 2 and YL 5): not found to exert any influence | Inactivation (mm) [3, 7]: 27 mm | Inactivation (mm) [3, 8]: 0 mm | Inactivation (mm) [3, 9]: 0 mm | Inactivation (mm) [3, 10]: 0 mm | Inhibition halos ([4]; pH 2, 37 °C for 60 min): 27 mm | Inhibition halos ([4]; pH 4, 37 °C for 60 min): 27 mm | Inhibition halos ([4]; pH 6, 37 °C for 60 min): 27 mm | Inhibition halos ([4]; pH 8, 37 °C for 60 min): 27 mm | Inhibition halos ([4]; pH 10, 37 °C for 60 min): 27 mm | Inhibition halos (mm) ([5]; incubation time 15 min): 27 mm | Inhibition halos (mm) ([5]; incubation time 30 min): 27 mm | Inhibition halos (mm) ([5]; incubation time 60 min): 27 mm | bactericidal activity after heating ([5]; 60 min incubation at 100 °C): not compromised | Inhibition halo (mm) ([6]; pH 4, 20 min): 27 mm | bactericidal activity after pH combined with heat ([6]; pH 4 or 7, combined with an elevated temperature): not compromised | Inhibition halo (mm) ([6]; pH 7, 20 min): 27 mm | inhibitory effect on the growth of Gram-negative bacteria (Gram-negative bacteria): does not exert any inhibitory effect
